Experimental data: patent US20210015858A1 (I MAB BIOPHARMA US, published 2021)
Substitutions are numbered along the chain they refer to. One block for each binder: values may come before it.

Tests used:
His-tagged cyno-TIGIT = biological target: T1, His-tagged cyno-TIGIT (cyno, UniProt A0A7N9I9V4 89-209); experiment: ELISA
T1 construct: also called cyno TIGIT protein; not shown: His tag

[1] = biological target: T2, recombinant His-tagged human TIGIT-ECD protein (human, UniProt Q495A1 22-141); experiment: SPR (Biacore T200), antibody captured, His-tagged TIGIT-ECD injected
T2 construct: extracellular domain; The ELISA text only says His-tagged human TIGIT; also called His-tagged TIGIT; human TIGIT protein; not shown: His tag
T2 sequence (looked up): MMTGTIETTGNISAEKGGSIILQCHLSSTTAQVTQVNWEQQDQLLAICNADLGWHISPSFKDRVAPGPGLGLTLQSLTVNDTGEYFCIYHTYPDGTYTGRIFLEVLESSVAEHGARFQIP
Protocol: The binding of the antibodies to recombinant His-tagged human TIGIT-ECD protein was examined by Biacore T200 using a capture method. The anti-TIGIT antibodies were captured using anti-human Fc antibody or Protein A which were coated on chip. The serial concentrations of his-tagged human TIGIT-ECD protein (0-8 nM) were injected over capture antibodies at the flow rate of 30 μl/min. The dissociation phases were 600 s or 1200 s.

[2] = biological target: T3, human TIGIT expressed on cell surface (human, UniProt Q495A1 22-244); experiment: cell-based or functional assay
T3 sequence (looked up): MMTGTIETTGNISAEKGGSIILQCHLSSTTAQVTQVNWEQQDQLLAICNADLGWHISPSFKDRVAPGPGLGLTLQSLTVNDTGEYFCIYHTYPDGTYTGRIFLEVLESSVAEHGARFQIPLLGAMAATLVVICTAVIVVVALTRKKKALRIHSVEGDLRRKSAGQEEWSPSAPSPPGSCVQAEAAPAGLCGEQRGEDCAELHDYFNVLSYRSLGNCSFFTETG

[3] = biological target: T2, recombinant His-tagged human TIGIT-ECD …; experiment: SPR affinity ranking (Biacore 8K or T200)
[4] = biological target: T2, recombinant His-tagged human TIGIT-ECD …; experiment: SPR (Biacore T200), antibody captured, His-tagged TIGIT-ECD injected; remark: listed apart in the source
Protocol: The anti-TIGIT antibodies were captured using anti-human Fc antibody or Protein A which were coated on the chip. Serial concentrations of His-tagged human TIGIT-ECD protein (0-8 nM) were injected over capture antibodies at the flow rate of 30 μl/min. The dissociation phases were 600 s or 1200 s.

[5] = biological target: T2, recombinant His-tagged human TIGIT-ECD …; experiment: SPR affinity ranking (Biacore T200)

T1 sequence (A0A7N9I9V4 entry or part of it): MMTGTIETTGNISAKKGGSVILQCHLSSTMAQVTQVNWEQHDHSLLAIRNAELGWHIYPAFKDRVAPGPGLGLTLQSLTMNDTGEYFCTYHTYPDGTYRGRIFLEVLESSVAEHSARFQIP

B2: 116H8 (antibody, human IgG1, V domains shown)
VH: EFQLQQSGPELVKPGASVKISCRASGYSFTAYSMNWVQQTNGKSLEWIGVINPKFGTINYNQKFKGKATLTVDQSSSAAYIQLNSLTSEDSAVYFCARNGNFAWYFDVWGTGTTVTVSS
VL: DIQMTQSPASLSASVGETVTITCRASENIFSYLAWYQQKQGKSPQLLVYNAKTLPEGVPSRFSGSGSGTQFSLKINSLQSEDFGSYYCQHHYGVPWTFGGGTKLEIK
notes: Mouse hybridoma clone
binding result (His-tagged cyno-TIGIT): no binding

B5: 222H4 (antibody, human IgG1, V domains shown)
VH: EVQLQQSGPELVKPGASVKISCKTSGYTFSDYTLHWVKQSHGKNLEWIGGFNPNNGGTNYNQKFKVKASLTIDKSSNTVYMELRSLSSEDSAVYYCARNWAFDYWGQGTTLTVSS
VL: DIVMTQSHKIMSTSLGDRVNITCKASQHVSTAVAWYQQRPGQSPRLLIYSASYRHTGVPDRFTGSGSGTDITFTISSVQTEDLAVYYCQQYYTTPWTFGGGTKLEIK
notes: Mouse hybridoma clone
Kd [1]: 0.242 nM
koff [1]: 0.000453 s⁻¹
kon [1]: 1.87e+06 M⁻¹ s⁻¹

B6: 143B6 (antibody, human IgG1, V domains shown)
VH: EVQLVESGGGLVMPGGSLKLSCAASGFTFSGFVMSWVRQTPEKRLEWVATINDAGTYTYYSDNLKGRFTISRDNAKNNLYLQMSHLKSEDAGMYYCARDGGLRAWFPYWGPGTLVTVSA
VL: DIQLTQSPASLSASVGETVTITCRASENIYSYLAWYQLKQGKSPQLLVFNTKTLAEGVPSRFSGSGSGTQFSLRIDSLQLEDFGSFYCQHHIGSPRTFGGGTTLEIR
notes: Mouse hybridoma clone
binding result (His-tagged cyno-TIGIT): no binding

B10: 101E1HM-1 (antibody, V domains shown)
VH: QVQLQESGPGLVKPSQTLSLTCTVSGYSITDDYAWNWIRQPPGKGLEWMGYISYSGHTKYNPSLKSRVTISRDTSKNQFSLKLSSVTAADTAVYYCARKYYGGWFPRWGQGTLVTVSS
VL: DIQMTQSPSSLSASVGDRVTITCKASQDVFTAVAWYQQKPGKAPKLLIYSASYRPTGVPSRFSGSGSGTDFTFTISSLQPEDFATYYCQQSYSTPWTFGQGTRLEIK
Kd [5]: 2.15 nM
koff [5]: 0.00107 s⁻¹
kon [5]: 496000 M⁻¹ s⁻¹

B11: 101E1HM-3 (antibody, V domains shown)
VH: B10 VH with H57D, R107V
VL: B10 VL with Y53N, P55N, S91Q
Kd [5]: 0.554 nM
koff [5]: 0.000717 s⁻¹
kon [5]: 1.29e+06 M⁻¹ s⁻¹

B14: 101E1HM-2 (antibody, V domains shown)
VH: B10 VH with H57N, K59M, R107I
VL: B10 VL with P55H
Kd [5]: 1.48 nM
koff [5]: 0.00191 s⁻¹
kon [5]: 1.29e+06 M⁻¹ s⁻¹

More lines, now with the values ahead:

binding result (His-tagged cyno-TIGIT): no binding
B1: 221F11 (antibody, human IgG1, V domains shown)
VH: EIQLQQTGPELVKPGASVNISCKASGYSFTDYIMIWVKQSHGKSLEWIGNIHPYFGNSHYNLKFKGKATLTVDKSSTTAYMQLNSLTSEDSAVYYCARRGITSAHFDYWGQGTTLTVSS
VL: DIVLTQSPASLAVSLGQRATISCRASKSVSTSGYSYMHWYQQKPGQPPKLLIYRASNLESGVPARFSGSGSGTDFTLNIHPVEEEDAATYYCQHSGDLPWTFGGGTKLEIK
notes: Mouse hybridoma clone

Kd [1]: 0.024 nM
koff [1]: 0.000107 s⁻¹
kon [1]: 4.45e+06 M⁻¹ s⁻¹
B3: 167F7 (antibody, human IgG1, V domains shown)
VH: B2 VH with G66D, Q74H, I81M
VL: B2 VL with N28S, V48A, K52E, P55A, S85I, Y92F
notes: Mouse hybridoma clone

binding result (His-tagged cyno-TIGIT): no binding
B4: 131A12 (antibody, human IgG1, V domains shown)
VH: B2 VH with I58T, K65R, G66D, Q74H, I81M
VL: B2 VL with V48A, K52E, P55A, N76S, Y92F, K103N
notes: Mouse hybridoma clone

Kd [1]: 0.0822 nM
koff [1]: 0.000154 s⁻¹
kon [1]: 1.87e+06 M⁻¹ s⁻¹
maximum ADCC activity (LDH release, NK92-CD16a effector cells on Jurkat-TIGIT target cells) [2]: 50%
Kd [3]: 0.0716 nM
koff [3]: 0.000189 s⁻¹
kon [3]: 2.64e+06 M⁻¹ s⁻¹
Kd [4]: 0.0822 nM
koff [4]: 0.000154 s⁻¹
kon [4]: 1.87e+06 M⁻¹ s⁻¹
B7: 350D10 (antibody, human IgG1, V domains shown)
VH: EVKLVESGGALVQPGGSLKLSCAASGFTFSDYYMYWVRQTPEKRLEWVASITKGGGSTYYPDTLKGRFTISRDNAKNTLYLQMSRLKSEDTDMYYCARQSSYDFVMDYWGQGTSVTVSS
VL: DIVMTQSHKFMSTSVGDRVTITCKASQDVDTAVAWYQQKPGQSPKLLIYWASARHTGVPDRFTGSGSGTDFTLTISNVQSEDLADYFCQQYSNYPLTFGVGTKLELK
notes: Mouse hybridoma clone; also called 350D10-chimeric

Kd [1]: 0.252 nM
koff [1]: 0.000156 s⁻¹
kon [1]: 619000 M⁻¹ s⁻¹
maximum ADCC activity (LDH release, NK92-CD16a effector cells on Jurkat-TIGIT target cells) [2]: 50%
Kd [3]: 0.296 nM
koff [3]: 3.25e-05 s⁻¹
kon [3]: 110000 M⁻¹ s⁻¹
Kd [4]: 0.374 nM
koff [4]: 0.000167 s⁻¹
kon [4]: 446000 M⁻¹ s⁻¹
B8: 90D9 (antibody, V domains shown)
VH: EVQLQQSGPELVKPGASVKISCKTSGYTFTENTMHWVKQSHGKSLEWIGGINPNQGGNRNNQKFKGKATLTVDKSSSTAYMELRSLTSEDSAVYYCARSGLRDYAMDYWGQGTSVTVSS
VL: DIVMTQSHKFMSTSVGDRVSITCKASQHVSTAVVWYQQKPGQSPKLLIYSPSYRYTGVPDRFTGSGSGTDFTFTISSVQAEDLAVYYCQQHYSTPWTFGGGTKLEIK
notes: Mouse hybridoma clone; also called 90D9-chimeric

apparent Kd (pooled screen) [1]: 0.362 nM
apparent koff (pooled screen) [1]: 0.00105 s⁻¹
apparent kon (pooled screen) [1]: 2.9e+06 M⁻¹ s⁻¹
maximum ADCC activity (LDH release, NK92-CD16a effector cells on Jurkat-TIGIT target cells) [2]: 50%
apparent Kd (pooled screen) [3]: 0.487 nM
apparent koff (pooled screen) [3]: 0.00114 s⁻¹
apparent kon (pooled screen) [3]: 2.34e+06 M⁻¹ s⁻¹
apparent Kd (pooled screen) [4]: 0.362 nM
apparent koff (pooled screen) [4]: 0.00105 s⁻¹
apparent kon (pooled screen) [4]: 2.9e+06 M⁻¹ s⁻¹
binding result (His-tagged cyno-TIGIT): no binding
B9: 101E1 (antibody, human IgG1, V domains shown)
VH: DVQLQESGPGLVKPSQSLSLTCTVTGYSITSDYAWNWIRQFPGNKLEWMGYISYSGNTRYNPSLKSRISITRDTSKNQFFLQFNSVTTEDTATYYCSRKYYGSWFPYWGQGTLVTVSA
VL: B8 VL with H28D, S30F, V34A, P51A, K103R
notes: Mouse hybridoma clone; also called 101E1-chimeric

Kd [5]: 1.29 nM
koff [5]: 0.00209 s⁻¹
kon [5]: 1.63e+06 M⁻¹ s⁻¹
B12: 101E1HM-5 (antibody, V domains shown)
VH: B10 VH with H57I, K59R, R107Q
VL: B10 VL with P55D

Kd [5]: 3.08 nM
koff [5]: 0.00439 s⁻¹
kon [5]: 1.43e+06 M⁻¹ s⁻¹
B13: 101E1HM-4 (antibody, V domains shown)
VH: B10 VH with K59R, G103S, R107D
VL: B10 VL with P55M
